Experimental findings from patent US20110236679A1 (FUJIFILM, published 2011) are described below.

For assay [1], the target named is T1, lysozyme (hen (hen egg lysozyme, as named for the …, UniProt P00698 19-147)).
T1 construct: also called hen egg lysozyme; HEL
Nature of the assay: SPR (BIACORE 3000), 100 nM lysozyme injected for 10 min; lysozyme bound divided by fragments immobilized; fragments immobilized as 10:10:3 complex with lysozyme, antigen washed off. How it is done: (§1) Time-dependent change in lysozyme binding over a period of 10 minutes from starting the addition of lysozyme was measured using BIACORE 3000. The binding ratio of lysozyme was obtained by dividing the binding amount of lysozyme during the 10-minutes-period by the immobilization amount of the antibody fragments.
(§2) The binding amount of lysozyme was calculated and expressed as a relative value, assuming that the binding amount of lysozyme in Comparative Example 2 is 1.
In general terms: SPR reads the build-up and loss of mass on a sensor chip optically.

Assay [2] deals with T1, lysozyme. The assay can be described thus: SPR (BIACORE 3000), 100 nM lysozyme injected for 10 min; lysozyme bound divided by fragments immobilized; VH and VL fragments immobilized one after the other without antigen. As to the method:
as §1, §2

Assay [3] concerns the target T2, MBP-VH(BGP) and MBP-VL(BGP), separate MBP-fused VH-region and VL-region polypeptides of the anti-osteocalcin ….
T2 construct: Two separate chains, not linked, on SENSORCHIP CM5; Substrate I was made from the 1:1:1 complex with the BGP heptapeptide, which was then washed off; In J the chains were immobilized one after the other without antigen; Both entries as printed start with the MBP leader; also called immobilization substrates I, J
The assay can be described thus: SPR (BIACORE 3000), BGP heptapeptide over immobilized MBP-VH(BGP) and MBP-VL(BGP).
Method: Commercially available SENSORCHIP CM5 (trade name, manufactured by GE Healthcare) was set in a Surface Plasmon Resonance Analyzer (trade name: BIACORE 3000, manufactured by Biacore). The substrate surface was stabilized with HEPES buffer solution for SPR (20 mM HEPES-HCl, 150 mM NaCl, pH 7.4) at a flow rate of 10 μl/min, and then 70 μl of a mixed aqueous solution of 0.2 mM EDC and 0.04 mM NHS was injected thereonto. Thereafter, 50 μl of a two-fold dilution of the above complex sample solution with an acetate buffer (pH 4.5) was injected onto the substrate sample, and then blocking treatment was performed with an ethanolamine solution.
Time-dependent change in binding over a period of 10 minutes from starting the addition of the BGP heptapeptide was measured using BIACORE 3000. The binding ratio of the BGP heptapeptide was obtained by dividing the binding amount of the BGP heptapeptide over the 10-minutes-period by the immobilization amount of the antibody fragments.

T1 sequence (P00698 19-147 limits assumed): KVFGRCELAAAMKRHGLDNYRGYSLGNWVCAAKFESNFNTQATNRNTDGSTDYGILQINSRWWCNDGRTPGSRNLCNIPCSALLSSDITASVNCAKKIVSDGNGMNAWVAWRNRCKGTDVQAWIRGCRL

B1: VH(HEL)-His6 and VL(HEL)-His10, separate VH-region and VL-region polypeptides of the anti-hen egg lysozyme antibody LxE16, immobilized together on a sensor chip (other)
VH: EVQLQESGPSLVKPSQTLSLTCSVTGDSITRGYWSWIRKFPGNKLEYMGYISYSGSTFYNPSLKSRISITRDTFKNQLYLQLNSVTTEDTATYYCAEYDGTYWGQGTTVTVHHHHHHGAAEQKLISEEDLNGAA
VL: VEFAAQPAMASTDILMTQTPATLSVTPGDSVSLSCRASQSIGNNLHWFQQKSHESPRLLIKYASQSISGIPSRFSGSGSGTDFTLSINTVETEDFGMYFCQQSNSWPYTFGGGTKLEIKRAAAEHHHHHHHHHH
notes: Two separate chains, not linked; Substrate G was made from the 10:10:3 complex with lysozyme, which was then washed off; In H the chains were immobilized one after the other without antigen; also called immobilization substrates G, H
Turning to B1, the results for the Lysozyme binding ratio in assay [1] and in assay [2] were 7.6 relative value (text: Comparative Example 2 = 1; in the table Comparative Example 4 stands at 1) and 1 relative value (text: Comparative Example 2 = 1; in the table Comparative Example 4 stands at 1), respectively.

B2: C-terminal heptapeptide fragment of BGP (RRFYGPY) (peptide)
peptide: RRFYGPY
notes: also called BGP heptapeptide; osteocalcin C-terminal heptapeptide
Regarding B2, the binding result in assay [3] is “binds”.
